Molecular target: T1, mature EnvC (murein hydrolase activator), non-tagged, co-expressed for crystallisation (E. coli, UniProt P37690 35-419)
T1 construct: EnvC, E. coli, mature protein
T1 sequence (looked up): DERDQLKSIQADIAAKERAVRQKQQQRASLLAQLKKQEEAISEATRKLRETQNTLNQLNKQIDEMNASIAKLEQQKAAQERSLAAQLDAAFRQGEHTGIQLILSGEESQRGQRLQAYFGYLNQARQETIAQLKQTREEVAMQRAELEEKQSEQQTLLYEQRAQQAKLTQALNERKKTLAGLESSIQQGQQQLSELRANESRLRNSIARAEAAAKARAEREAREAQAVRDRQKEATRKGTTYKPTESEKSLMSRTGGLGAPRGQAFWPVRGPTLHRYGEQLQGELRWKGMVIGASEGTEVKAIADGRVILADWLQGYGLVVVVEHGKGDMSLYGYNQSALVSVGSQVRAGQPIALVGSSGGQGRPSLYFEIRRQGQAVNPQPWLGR
Experiment: crystal structure; X-ray, 2.1 Å, space group P2(1)2(1)2(1); His-tagged FtsX periplasmic domain and non-tagged EnvC coexpressed and copurified by Ni-IMAC; molecular replacement
Details: both partners purified

- stoichiometry N: 2 FtsX periplasmic domains per EnvC
B1: FtsX periplasmic domain, histidine-tagged, co-expressed for crystallisation (domain or fragment, E. coli)
chain: QITVYLQKTLDDDAAAGVVAQLQAEQGVEKVNYLSREDALGEFRNWSGFGGALDMLEENPLPAVAVVIPKLDFQGTESLNTLRDRITQINGIDEVRMDDS
notes: FtsX periplasmic domain (between the first and second transmembrane helix), E. coli; The two-hybrid construct of the same domain is residues 110 to 209; also called FtsX I; FtsX II; source: E. coli C43(DE3), coexpressed with non-tagged EnvC from a pETDuet1-based vector, copurified by Ni-IMAC

— PMC7668044, “Insights into bacterial cell division from a structure of EnvC bound to the FtsX periplasmic domain” (Proceedings of the National Academy of Sciences of the …, 2020)
